Measured values: patent publication US20180112193A1, “CSF1 THERAPEUTICS” (University Court Of The University Of Edinburgh, priority 2013, published 2018)

How the values were obtained:
C57BI6 male mice [1] = assay: Hepatic phagocytic ability after partial hepatectomy (gene analysis, bead clearance assay, ex vivo imaging); format: in vivo, mouse
Protocol: (§1) C57BI6 male mice (8-10 weeks) underwent either partial hepatectomy (⅔ resection) or paracetamol intoxication (350 mg/kg intraperitoneal following overnight fast). CSF1-Fc was administered as previous (0.75 mg/kg). Gene analysis was performed using Qiagen Quantitect Primers (MSR1 and MARCO) and related to GAPDH level for each sample. […] 0.1 mls of 5000 IU/ml heparin solution was infused to prevent blockage of the catheter. 100 μl of red fluorescent bead solution (1:5 Latex beads 1.0 μm, fluorescent red, SIGMA-ALDRICH®) was infused through the cannula (1:2 solution for assay following paracetamol injury). 20 mcl of blood was removed from the cannula every two minutes starting from 1 minute post injection for 15 minutes. Blood was immediately fixed with 300 μl FACS-Lysing solution (BD Biosceinces). After 15 minutes mice were perfused with 15 mls 0.9% saline through the IVC cannula after dividing the portal vein for outflow. Organs were then removed (Liver, spleen, lungs, kidney, brain) and imaged with a Kodak In-Vivo Multispectral FX image station (Excitation: 550 nm; Emission: 600 nm; Exposure 1 sec; f-stop 2.8). Subsequently blood samples were analysed using a LSR-Fortessa™ flow cytometer (BD Biosciences) with fluorescent beads detected on the blue channel (B695/40) by a 1 minute sample collection on low flow rate setting.

neonatal pigs = assay: Fc-CSF-1 efficacy/safety treatment trial in neonatal pigs; format: in vivo, pig
Protocol: Further tests were conducted to assess Fc-CSF-1 efficacy/safety treatment trial in neonatal pigs. At the two doses tested (0.12 mg/Kg×3 and 0.5 mg/Kg×6) the Fc-CSF-1 treatment had little effect on body weight gain at any time point. […] It was noted that in the control animals, that the total blood cell count, monocyte count and granulocyte count declines in the first two weeks of life in the pig.

mouse bone marrow cells = assay: Proliferation of mouse bone marrow cells; format: cell-based; conditions: data not shown
Protocol: Stable Ba/F3 cells expressing porcine CSF-1R were maintained in culture with complete RPMI supplemented with either 10^4 Units/ml rh-CSF-1 or 10% IL-3 conditioned medium prior to MTT assay. 2×10^4 cells/well (Ba/F3 cells and Ba/F3 transfectants), or 5×10^4 cells/well (pig BMM) of a 96 well plate were plated in triplicate or quadruplicate and appropriate treatment (serial dilutions of rh-CSF-1 or porcine Fc CSF-1 were added to make a total volume of 100 μl per well. Cells were incubated for 48 hours at 37° C. with 5% CO2. For Ba/F3 cells, 10 μl of MTT (Sigma Aldrich M5655) stock solution (5 mg/ml) was added directly to each well to achieve a final concentration of 0.5 mg/ml and incubated at 37° C. for 3 hours prior to solubilisation overnight. For adherent mouse BMM cells, culture medium was replaced with 50 μl of 1 mg/ml MTT solution and incubated for 1 hour at 37° C. MTT solution was removed and tetrazolium salt solubilised with 100 μl of solubilisation agent (0.1M HCL, 10% Triton x-100 and isopropanol) followed by incubation at 37° C. with 5% CO2 for 10 minutes. Plates were read at 570 nm with reference wavelength of 405 nm.
Mice were injected with Fc-CSF-1 subcutaneously on each of 4 days and sacrificed on the 5th day. The mice were csf1r-EGFP (MacGreen) mice on the C57BI/6 background. […]

[2] = tested on: csf1r-EGFP (MacGreen) mice; assay: Fc-CSF-1 injected subcutaneously into csf1r-EGFP mice on 4 days, sacrificed on the 5th day; format: in vivo, mouse
Protocol: Mice were injected with Fc-CSF-1 subcutaneously on each of 4 days and sacrificed on the 5th day. The mice were csf1r-EGFP (MacGreen) mice on the C57BI/6 background. Tissue processing and immunohistochemistry were carried out as described in (Alikhan et al Am J. Pathol. 179, 1243-1256, 2011 and Macdonald et al Blood. 116, 3955-3963, 2010). A comparison of the effect of recombinant pig CSF-1 or Fc-CSF-1 on the proliferation of mouse bone marrow cells or the Ba/F3 CS1R reporter cell line using the assay described in Gow et al Cytokine.

C57BI6 male mice [3] = assay: Hepatic phagocytic ability after paracetamol intoxication (gene analysis, bead clearance assay, ex vivo imaging); format: in vivo, mouse
Protocol: as §1

male C57BI6 mice = assay: Paracetamol intoxication in mice; format: in vivo, mouse; conditions: administered 12 hours following paracetamol intoxication; Day 4
Protocol: Forty-eight male C57BI6 mice aged 10-12 weeks underwent either 2/3 partial hepatectomy, paracetamol intoxication or chronic liver injury plus 2/3 partial hepatectomy. 2/3 partial hepatectomy was performed by ligating the left lobe and left and right median lobes. Paracetamol intoxication was performed by intraperitoneal administration of 350 mg/kg paracetamol dissolved in phosphate buffered saline (PBS). Chronic liver injury plus 2/3 partial hepatectomy was performed by eight weeks intraperitoneal carbon tetrachloride administration 1 mcl/g twice weekly dissolved in olive oil followed by ⅔ partial hepatectomy as described above. […] Control mice (n=8 per injury model) received subcutaneous PBS of appropriate volume. All mice were culled on day 4 following injury (partial hepatectomy or paracetamol intoxication).
Following a midline laparotomy the liver was excised and weighed. Liver weight to body weight ratio was calculated and expressed as a percentage. Livers were fixed in 4% formalin overnight then transferred to 70% ethanol. Livers were then embedded in paraffin blocks and 4 μm sections cut. Immunohistochemistry for Ki67 (a marker of cellular proliferation expressed throughout the cell cycle) was performed following heat mediated antigen retrieval in Tris/EDTA solution at pH9. Hepatocyte proliferation was quantified by counting ki67 positive hepatocytes in 20 high powered fields (400×) per animal and the mean calculated.
Hepatic CSF1 gene expression was assessed in mice following paracetamol intoxication (350 mg/kg paracetamol IP following overnight fast) at time points up to 4 days, showing peak CSF1 gene expression at day 2 (FIG. 14A).

[4] = day 2 following partial hepatectomy
[5] = 0.12 mg/Kg×3, end of the experiment
[6] = 1 mg/kg, whole group or segregated for male or female
[7] = day 2 following paracetamol intoxication

B1: Fc-CSF-1: active fragment of porcine CSF-1 (SEQ ID NO:1) linked to the hinge-CH3 region of porcine IgG1a (SEQ ID NO:2) (protein, listed as Sus scrofa)
chain: SENCSHMIGDGHLKVLQQLIDSQMETSCQIAFEFVDQEQLTDPVCYLKKAFLQVQDILDETMRFRDNTPNANVIVQLQELSLRLNSCFTKDYEEQDKACVRTFYETPLQLLEKIKNVFNETKNLLKKDWNIFSKNCNNSFAKCSSQHERQPEGRGTKTKPPCPICPGCEVAGPSVFIFPPKPKDTLMISQTPEVTCVVVDVSKEHAEVQFSWYVDGVEVHTAETRPKEEQFNSTYRVVSVLPIQHQDWLKGKEFKCKVNNVDLPAPITRTISKAIGQSREPQVYTLPPPAEELSRSKVTVTCLVIGFYPPDIHVEWKSNGQPEPEGNYRTTPPQQDVDGTFFLYSKLAVDKARWDHGETFECAVMHEALHNHYTQKSISKTQGK
C57BI6 male mice [1]; 0.75 mg/kg, following partial hepatectomy
  phagocytic ability of the liver, clearance of fluorescent latex microbeads from the circulation: dramatically enhanced
C57BI6 male mice [1]; 15 minutes after bead injection, following partial hepatectomy
  fluorescent intensity of whole liver, ex vivo imaging: increased fluorescent intensity
C57BI6 male mice [1]; [4]
  MARCO gene expression, whole liver: upregulation
  MSR1 (macrophage scavenger receptor 1) gene expression, whole liver: upregulation
Neonatal pigs; [5]
  kidney weight: did not alter
  liver weight: did not alter
  lung weight: did not alter
  spleen weight: did not alter
Neonatal pigs; 0.12 mg/Kg×3 and 0.5 mg/Kg×6, any time point
  body weight gain: little effect
Neonatal pigs; blood, vs control animals
  granulocyte count: increased
  lymphocyte count: increased
  monocyte count: increased
Neonatal pigs; higher dose (0.5 mg/Kg×6), data not shown
  weight gain: marginal decrease
Neonatal pigs; liver
  histiocytes in the liver (pathology report): increased numbers
Mouse bone marrow cells
  biological activity (proliferation) compared with recombinant pig CSF-1: no difference in biological activity
[2]; 0.1 mg/kg
  body weight, dose response curve: detectable activity
[2]; 1 mg/kg
  total body weight: clearly increased total body weight
  total liver weight: significantly increased
  weight of the spleen: almost doubled
[2]; [6]
  weight of the kidney: no effect
  weight of the lung: no effect
[2]; blood
  segmented neutrophil counts: increases
  total lymphocytes: no effect
[2]; blood, both sexes
  total blood monocyte count: elevates
  white blood cell count: elevates
[2]; growth plate, zone of resorption and shaft, data not shown
  bone resorbing osteoclasts in bone: increase
[2]; liver, Affymetrix microarrays
  increase in abundance of macrophage-specific genes (csf1r, emr1 (F4/80)): 4-8 fold
  induction of classical inflammatory genes such as TNF-a, IL-6 or IL-1: no evidence of induction
[2]; liver, proliferating cells identified as hepatocytes
  cell proliferation in liver, PCNA immunostaining: extensive cell proliferation
[2]; liver, vs PBS control
  macrophage numbers in liver, F4/80 immunostaining: large increase in macrophage numbers
[2]; spleen, treated vs control
  numbers of macrophages in the spleen, csf1r-EGFP reporter fluorescence: greatly increased fluorescence
[2]; spleen, vs PBS control
  macrophage numbers and F4/80 intensity in spleen, immunostaining: large increase in macrophage numbers and also intensity of F4/80
C57BI6 male mice [3]; [7]
  MARCO gene expression, whole liver: upregulation
  MSR1 (macrophage scavenger receptor 1) gene expression, whole liver: upregulation
C57BI6 male mice [3]; paracetamol model
  clearance of latex microbeads from the circulation: did not notice enhanced clearance
  hepatic fluorescence, ex vivo imaging: significant increase
Male C57BI6 mice
  hepatocyte proliferation: increasing
  liver weight to body weight ratio: significantly increasing
